Assay results published in article PMC8651296.

Tests used:
[1] = target: ctSTIM1 cysteine mutant at position 312 (C437S background) (human) (UniProt Q13586); assay: FRET or BRET; single-molecule FRET (TIRF), symmetric inter-subunit: one cysteine mutant labelled with Alexa Fluor 555 and 647 mixed 1:1; single ctSTIM1 dimers in liposomes tethered by biotin-neutravidin; 20/150 TBS pH 7.4, room temperature
[2] = target: ctSTIM1 cysteine mutant at position 337 (C437S background) (human) (UniProt Q13586); assay: as above

| inter-subunit FRET efficiency [1] | inter-subunit FRET efficiency [2] | Substance |
| --- | --- | --- |
| 0.9 | – | ctSTIM1 cysteine mutant at position 312 (C437S background) (from UniProt Q13586 233-685) (domain or fragment) |
| – | 0.9 | ctSTIM1 cysteine mutant at position 337 (C437S background) (from UniProt Q13586 233-685) (domain or fragment) |
